# B1: RAB22A (parent)
# chain: FVEDSFDPNINPTIGASFMTKTVQ
# Variants of: B1
# Assay: protein stability index of a GFP-peptide fusion (GPS, HEK-293T) (PSI 1-6); higher = more stable
# Settings: c terminus: a fixed tail appended
# 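Note: lentivirally expressed fusions sorted by FACS into six bins by GFP to DsRed ratio, PSI derived from sequencing read proportions per bin multiplied by bin number.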
row,Variant,protein stability index
1,FVERSFDPNINPTIGASFMTKTVQ,1.7
2,FVESSFDPNINPTIGASFMTKTVQ,1.65
3,FVETSFDPNINPTIGASFMTKTVQ,1.89
4,FVEVSFDPNINPTIGASFMTKTVQ,2.36
5,FVEWSFDPNINPTIGASFMTKTVQ,2.1
6,FVEYSFDPNINPTIGASFMTKTVQ,2.98
7,FVEDAFDPNINPTIGASFMTKTVQ,2.16
8,FVEDCFDPNINPTIGASFMTKTVQ,2.03
9,FVEDDFDPNINPTIGASFMTKTVQ,3.27
10,FVEDEFDPNINPTIGASFMTKTVQ,3.63
11,FVEDFFDPNINPTIGASFMTKTVQ,2.92
12,FVEDGFDPNINPTIGASFMTKTVQ,2.08
13,FVEDHFDPNINPTIGASFMTKTVQ,1.74
14,FVEDIFDPNINPTIGASFMTKTVQ,2.18
15,FVEDKFDPNINPTIGASFMTKTVQ,2.1
16,FVEDLFDPNINPTIGASFMTKTVQ,1.97
17,FVEDMFDPNINPTIGASFMTKTVQ,1.99
18,FVEDNFDPNINPTIGASFMTKTVQ,2.64
19,FVEDPFDPNINPTIGASFMTKTVQ,1.96
20,FVEDQFDPNINPTIGASFMTKTVQ,2.65
21,FVEDRFDPNINPTIGASFMTKTVQ,1.93
22,FVEDTFDPNINPTIGASFMTKTVQ,2.34
23,FVEDVFDPNINPTIGASFMTKTVQ,1.89
24,FVEDWFDPNINPTIGASFMTKTVQ,1.52

row,Variant,protein stability index
1,FVEDYFDPNINPTIGASFMTKTVQ,1.98
2,FVEDSADPNINPTIGASFMTKTVQ,2.83
3,FVEDSCDPNINPTIGASFMTKTVQ,2.67
4,FVEDSDDPNINPTIGASFMTKTVQ,3.85
5,FVEDSEDPNINPTIGASFMTKTVQ,4.08
6,FVEDSGDPNINPTIGASFMTKTVQ,3.27
7,FVEDSHDPNINPTIGASFMTKTVQ,2.58
8,FVEDSIDPNINPTIGASFMTKTVQ,2.56
9,FVEDSKDPNINPTIGASFMTKTVQ,2.71
10,FVEDSLDPNINPTIGASFMTKTVQ,2.56
11,FVEDSMDPNINPTIGASFMTKTVQ,2.69
12,FVEDSNDPNINPTIGASFMTKTVQ,2.9
13,FVEDSPDPNINPTIGASFMTKTVQ,2.74
14,FVEDSQDPNINPTIGASFMTKTVQ,2.88
15,FVEDSRDPNINPTIGASFMTKTVQ,2.36
16,FVEDSSDPNINPTIGASFMTKTVQ,2.99
17,FVEDSTDPNINPTIGASFMTKTVQ,2.89
18,FVEDSVDPNINPTIGASFMTKTVQ,3.31
19,FVEDSWDPNINPTIGASFMTKTVQ,1.76
20,FVEDSYDPNINPTIGASFMTKTVQ,2.02
21,FVEDSFAPNINPTIGASFMTKTVQ,1.96
22,FVEDSFCPNINPTIGASFMTKTVQ,1.98
23,FVEDSFEPNINPTIGASFMTKTVQ,2.36
24,FVEDSFFPNINPTIGASFMTKTVQ,2.75

row,Variant,protein stability index
1,FVEDSFGPNINPTIGASFMTKTVQ,1.79
2,FVEDSFHPNINPTIGASFMTKTVQ,2
3,FVEDSFIPNINPTIGASFMTKTVQ,2
4,FVEDSFKPNINPTIGASFMTKTVQ,2.09
5,FVEDSFLPNINPTIGASFMTKTVQ,2.15
6,FVEDSFMPNINPTIGASFMTKTVQ,2.33
7,FVEDSFNPNINPTIGASFMTKTVQ,1.61
8,FVEDSFPPNINPTIGASFMTKTVQ,1.96
9,FVEDSFQPNINPTIGASFMTKTVQ,1.98
10,FVEDSFRPNINPTIGASFMTKTVQ,1.97
11,FVEDSFSPNINPTIGASFMTKTVQ,1.92
12,FVEDSFTPNINPTIGASFMTKTVQ,2.15
13,FVEDSFVPNINPTIGASFMTKTVQ,1.94
14,FVEDSFWPNINPTIGASFMTKTVQ,3.07
15,FVEDSFYPNINPTIGASFMTKTVQ,1.67
16,FVEDSFDANINPTIGASFMTKTVQ,2.33
17,FVEDSFDCNINPTIGASFMTKTVQ,2.02
18,FVEDSFDDNINPTIGASFMTKTVQ,2.76
19,FVEDSFDENINPTIGASFMTKTVQ,2.7
20,FVEDSFDFNINPTIGASFMTKTVQ,2.94
21,FVEDSFDGNINPTIGASFMTKTVQ,2.52
22,FVEDSFDHNINPTIGASFMTKTVQ,2.1
23,FVEDSFDININPTIGASFMTKTVQ,1.67
24,FVEDSFDKNINPTIGASFMTKTVQ,2.13

row,Variant,protein stability index
1,FVEDSFDLNINPTIGASFMTKTVQ,2.1
2,FVEDSFDMNINPTIGASFMTKTVQ,2.06
3,FVEDSFDNNINPTIGASFMTKTVQ,2.35
4,FVEDSFDQNINPTIGASFMTKTVQ,2.26
5,FVEDSFDRNINPTIGASFMTKTVQ,2.63
6,FVEDSFDSNINPTIGASFMTKTVQ,2.17
7,FVEDSFDTNINPTIGASFMTKTVQ,2.39
8,FVEDSFDVNINPTIGASFMTKTVQ,2.27
9,FVEDSFDWNINPTIGASFMTKTVQ,2.65
10,FVEDSFDYNINPTIGASFMTKTVQ,1.85
11,FVEDSFDPAINPTIGASFMTKTVQ,2.25
12,FVEDSFDPCINPTIGASFMTKTVQ,2.08
13,FVEDSFDPDINPTIGASFMTKTVQ,2.73
14,FVEDSFDPEINPTIGASFMTKTVQ,2.47
15,FVEDSFDPFINPTIGASFMTKTVQ,1.92
16,FVEDSFDPGINPTIGASFMTKTVQ,2.78
17,FVEDSFDPHINPTIGASFMTKTVQ,2.22
18,FVEDSFDPIINPTIGASFMTKTVQ,2.23
19,FVEDSFDPKINPTIGASFMTKTVQ,1.88
20,FVEDSFDPLINPTIGASFMTKTVQ,1.66
21,FVEDSFDPMINPTIGASFMTKTVQ,2.35
22,FVEDSFDPPINPTIGASFMTKTVQ,2.49

# Source: the supplement of paper PMC10567573
